Assay results taken from patent US20210340252A1 (WUXI BIOLOGICS IRELAND, published 2021).

T1: CynoTIM-3.ECD.Fc (cynomolgus monkey, UniProt A0A2K5U3G7 22-195)
T1 construct: extracellular domain; also called Cynomolgus TIM-3, hFc tag; not shown: Fc tag
T1 sequence: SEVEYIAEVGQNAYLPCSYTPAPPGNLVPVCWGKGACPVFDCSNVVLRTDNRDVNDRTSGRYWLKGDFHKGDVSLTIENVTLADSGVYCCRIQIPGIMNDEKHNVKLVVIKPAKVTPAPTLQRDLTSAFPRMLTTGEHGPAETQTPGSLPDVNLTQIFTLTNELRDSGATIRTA

T2: Human TIM-1, His tag (human, UniProt Q96D42 21-293, limits assumed)
T2 construct: Bought protein
T2 sequence (looked up): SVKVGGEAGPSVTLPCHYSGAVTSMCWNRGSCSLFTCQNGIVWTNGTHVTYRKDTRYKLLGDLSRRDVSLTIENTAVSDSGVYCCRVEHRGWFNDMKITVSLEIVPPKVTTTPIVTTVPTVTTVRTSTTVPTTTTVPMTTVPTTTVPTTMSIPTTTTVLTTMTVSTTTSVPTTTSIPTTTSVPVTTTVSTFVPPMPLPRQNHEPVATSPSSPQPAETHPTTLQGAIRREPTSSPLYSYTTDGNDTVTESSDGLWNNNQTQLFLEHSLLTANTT

T3: Human TIM-4, His tag (human, UniProt Q96H15 25-315, limits assumed)
T3 construct: Bought protein
T3 sequence (looked up): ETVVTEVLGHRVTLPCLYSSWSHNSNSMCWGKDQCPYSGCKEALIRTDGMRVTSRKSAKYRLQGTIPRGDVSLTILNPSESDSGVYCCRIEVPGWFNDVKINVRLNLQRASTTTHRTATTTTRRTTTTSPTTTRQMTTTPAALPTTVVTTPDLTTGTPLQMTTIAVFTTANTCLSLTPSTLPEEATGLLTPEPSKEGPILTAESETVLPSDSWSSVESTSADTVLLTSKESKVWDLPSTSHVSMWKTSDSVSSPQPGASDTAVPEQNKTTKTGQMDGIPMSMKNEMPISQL

T4: cynomolgus monkey TIM-3, full length, on transfected cells (cynomolgus monkey, UniProt A0A2K5U3G7 22-294)
T4 construct: whole, on cells; cynoTIM-3-expressing transfectant cells; also called cynoTIM-3
T4 sequence: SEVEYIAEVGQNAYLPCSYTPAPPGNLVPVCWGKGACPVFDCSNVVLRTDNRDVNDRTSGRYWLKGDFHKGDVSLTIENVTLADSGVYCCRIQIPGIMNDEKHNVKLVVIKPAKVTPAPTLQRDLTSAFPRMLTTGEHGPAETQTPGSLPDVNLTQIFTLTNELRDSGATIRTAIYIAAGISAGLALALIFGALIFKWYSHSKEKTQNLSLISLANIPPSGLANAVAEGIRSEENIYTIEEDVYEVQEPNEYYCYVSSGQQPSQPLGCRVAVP


What was measured:
hTIM-3.ECD.MBPHis = target: T5, hTIM-3.ECD.MBPHis (human, UniProt Q8TDQ0 22-202); experiment: SPR Biacore 8K, antibody captured on anti-human IgG Fc CM5 chip, hTIM-3.ECD.MBPHis as analyte, 1:1 fit
T5 construct: extracellular domain; Made in Expi293 cells; also called human TIM-3.ECD.MBPAVIHIS; not shown: C-terminal MBP / AVI / 6xHis tag

CynoTIM-3.ECD.Fc = target: T1, CynoTIM-3.ECD.Fc; experiment: SPR Biacore 8K, cynoTIM-3.ECD.Fc immobilised on CM5 chip, antibody as analyte (avidity), 1:1 fit
[1] = target: T6, human TIM-3, full length, on cells (human, UniProt Q8TDQ0 22-301); experiment: flow cytometry on hTIM-3-expressing transfectant cells, PE goat anti-human IgG-Fc
T6 construct: whole, on cells; also called hTIM-3; cell surface human TIM-3

[2] = target: T6, human TIM-3, full length, on cells; experiment: FACS on PHA-activated human CD4+ T cells (natural TIM-3), detection with PE goat anti-human IgG Fc, MFI
Human TIM-1, His tag = target: T2, Human TIM-1, His tag; experiment: ELISA, plates coated with human TIM-1
mFc-tagged human TIM-3 = target: T7, mFc-tagged human TIM-3 (human, UniProt Q8TDQ0 22-202, limits assumed); experiment: competition, flow cytometry: antibody pre-mixed with mFc-tagged human TIM-3, binding of TIM-3 to PtdSer on apoptotic Jurkat cells, PE anti-mouse IgG Fc; blockade of TIM-3 binding to PtdSer on apoptotic Jurkat cells
T7 construct: the assay text only says mFc-tagged human TIM-3; also called hTIM-3.ECD.mFc; not shown: mouse Fc tag at the C-terminus

[3] = target: T6, human TIM-3, full length, on cells; experiment: FACS binding titration on human TIM-3 transfected cells after incubation of the antibody in human serum
Human TIM-4, His tag = target: T3, Human TIM-4, His tag; experiment: ELISA, plates coated with human TIM-4
[4] = target: T4, cynomolgus monkey TIM-3, full length, …; experiment: flow cytometry on cynoTIM-3-expressing transfectant cells, PE goat anti-human IgG-Fc
[5] = target: human TIM-3 protein (coated on ELISA plates) (human, UniProt Q8TDQ0 22-200, limits assumed); experiment: competition ELISA on plate-coated human TIM-3 against biotinylated WBP340-BMK8, detection with SA-HRP

| Binder | Kd (hTIM-3.ECD.MBPHis) | koff (hTIM-3.ECD.MBPHis) | kon (hTIM-3.ECD.MBPHis) | Kd (CynoTIM-3.ECD.Fc) | koff (CynoTIM-3.ECD.Fc) | kon (CynoTIM-3.ECD.Fc) | EC50 [1] | EC50 [2] | binding result (Human TIM-1, His tag) | IC50 (mFc-tagged human TIM-3) | EC50 (read off the curve) [3] | binding result (Human TIM-4, His tag) | EC50 [4] | IC50 (read off the curve) [5] |
| --- | --- | --- | --- | --- | --- | --- | --- | --- | --- | --- | --- | --- | --- | --- |
| W3405-2.61.21-uAb-hIgG4.SPK (V87E) (antibody, V domains shown, Human IgG4 (S228P) heavy constant region and kappa light chain; also called mutant_3) VH: EVQLLEAGGGPVQPGGSLRLSCAAAGFTFSNYAMSWVRQAPGKGLEWVSSISDNGGTAYHADSVQGRFTISRDNSKSTLYLQMNSLRAEDTAVYYCAKDFGDSPGYWGQGTLVTVSS VL: not shown | 0.153 nM | 3.18e-05 s⁻¹ | 208000 M⁻¹ s⁻¹ | 0.00452 nM | 7.49e-06 s⁻¹ | 1.66e+06 M⁻¹ s⁻¹ | – | – | – | – | – | – | – | – |
| W3405-2.61.21-uAb-p1-hIgG4.SPK (antibody, V domains shown, Fully human antibody; Constant region of human IgG4 (S228P) heavy chain and human kappa light chain; also called W3405 lead antibody; p1 variant (N→Q)) VH: EVQLLEAGGGPVQPGGSLRLSCAAAGFTFSNYAMSWVRQAPGKGLEWVSSISDQGGTAYHADSVQGRFTISRDNSKSTLYLQMNSLRAEDTAVYYCAKDFGDSPGYWGQGTLVTVSS VL: not shown | 0.138 nM | 3.2e-05 s⁻¹ | 232000 M⁻¹ s⁻¹ | 0.006 nM | 1.73e-05 s⁻¹ | 2.89e+06 M⁻¹ s⁻¹ | 0.13 nM | 0.096 nM | no binding | 20 nM | ~0.4 nM | no binding | 0.99 nM | ~0.8 nM |
